Data set [1] has as its target T1, Dmc1 (Saccharomyces cerevisiae) (UniProt P25453).
T1 sequence: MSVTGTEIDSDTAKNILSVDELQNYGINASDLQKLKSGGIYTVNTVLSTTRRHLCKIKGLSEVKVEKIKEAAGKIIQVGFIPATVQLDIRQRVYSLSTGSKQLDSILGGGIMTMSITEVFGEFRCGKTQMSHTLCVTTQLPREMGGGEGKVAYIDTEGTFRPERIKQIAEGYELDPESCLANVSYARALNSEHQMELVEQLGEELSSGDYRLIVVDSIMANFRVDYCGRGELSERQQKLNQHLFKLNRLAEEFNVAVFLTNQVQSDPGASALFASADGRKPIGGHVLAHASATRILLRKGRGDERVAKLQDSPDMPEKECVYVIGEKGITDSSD
Briefly: smFRET, RPA displacement. Conditions: internal Cy3 between T12 and T18.

The target in data set [2] is T2, Dmc1;Mei5-Sae3 complex (Saccharomyces cerevisiae;Saccharomyces cerevisiae) (UniProt P25453+P32489+P89114).
T2 sequence 1: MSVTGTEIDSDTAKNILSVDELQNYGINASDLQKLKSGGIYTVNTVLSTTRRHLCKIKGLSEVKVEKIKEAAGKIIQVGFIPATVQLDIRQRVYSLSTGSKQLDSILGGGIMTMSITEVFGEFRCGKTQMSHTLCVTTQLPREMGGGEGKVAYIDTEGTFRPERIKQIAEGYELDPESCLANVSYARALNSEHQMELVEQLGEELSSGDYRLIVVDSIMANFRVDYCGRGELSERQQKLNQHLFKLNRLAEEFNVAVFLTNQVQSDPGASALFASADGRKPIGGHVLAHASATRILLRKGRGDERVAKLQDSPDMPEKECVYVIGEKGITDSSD
T2 sequence 2: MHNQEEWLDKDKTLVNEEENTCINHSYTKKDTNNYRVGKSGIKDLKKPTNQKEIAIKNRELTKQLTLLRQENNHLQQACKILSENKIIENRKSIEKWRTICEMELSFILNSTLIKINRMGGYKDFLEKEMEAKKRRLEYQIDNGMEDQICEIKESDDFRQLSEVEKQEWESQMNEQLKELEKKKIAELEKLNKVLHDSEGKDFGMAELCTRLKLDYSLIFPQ
T2 sequence 3: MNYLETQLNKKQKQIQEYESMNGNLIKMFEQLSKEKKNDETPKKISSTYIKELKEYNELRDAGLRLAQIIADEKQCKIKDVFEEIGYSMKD
Briefly: smFRET + GFP colocalization. The conditions noted are these: internal Cy3 between T12 and T21.

The target in data set [3] is T3, RPA (Saccharomyces cerevisiae, UniProt P22336;P26754;P26755 1-621;1-273;1-122). Briefly: EMSA. (A gel shift assay detects complexes by their altered migration in electrophoresis.)
T3 sequence (P22336 whole entry, chain 1 of 3): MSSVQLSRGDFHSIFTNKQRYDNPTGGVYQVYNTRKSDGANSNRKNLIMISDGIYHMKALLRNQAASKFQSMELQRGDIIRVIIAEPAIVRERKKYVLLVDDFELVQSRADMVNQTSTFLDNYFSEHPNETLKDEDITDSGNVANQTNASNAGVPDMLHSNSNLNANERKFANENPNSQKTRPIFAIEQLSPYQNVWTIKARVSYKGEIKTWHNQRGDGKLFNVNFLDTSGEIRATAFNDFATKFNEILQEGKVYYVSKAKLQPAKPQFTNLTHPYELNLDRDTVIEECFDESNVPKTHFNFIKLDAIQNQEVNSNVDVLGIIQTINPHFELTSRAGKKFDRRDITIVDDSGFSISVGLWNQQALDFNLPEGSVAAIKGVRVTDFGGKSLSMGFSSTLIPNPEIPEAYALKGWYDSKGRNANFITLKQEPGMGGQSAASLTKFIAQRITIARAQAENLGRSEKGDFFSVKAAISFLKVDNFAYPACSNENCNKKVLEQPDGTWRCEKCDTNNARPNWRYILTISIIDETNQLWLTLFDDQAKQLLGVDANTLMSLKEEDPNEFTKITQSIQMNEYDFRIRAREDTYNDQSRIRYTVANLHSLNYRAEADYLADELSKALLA
T3 sequence (P26754 whole entry, chain 2 of 3): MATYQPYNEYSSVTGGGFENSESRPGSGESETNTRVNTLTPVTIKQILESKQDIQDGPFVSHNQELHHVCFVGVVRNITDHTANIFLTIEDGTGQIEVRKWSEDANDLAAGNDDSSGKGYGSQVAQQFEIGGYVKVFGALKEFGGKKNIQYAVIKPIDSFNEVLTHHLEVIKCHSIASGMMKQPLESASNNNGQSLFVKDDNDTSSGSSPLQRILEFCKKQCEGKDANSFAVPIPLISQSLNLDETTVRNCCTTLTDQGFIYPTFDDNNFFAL
T3 sequence (P26755 whole entry, chain 3 of 3): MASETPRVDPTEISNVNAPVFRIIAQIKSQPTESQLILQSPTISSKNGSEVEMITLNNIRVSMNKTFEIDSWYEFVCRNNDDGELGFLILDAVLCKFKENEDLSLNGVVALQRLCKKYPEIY
Another data set concerns the target RPA-GFP (Rfa2-eGFP) (Saccharomyces cerevisiae, UniProt P22336;P26754;P26755 1-621;1-273;1-122). Briefly: EMSA.
Data set [4] has as its target T4, Dmc1;Mei5-Sae3 complex (Saccharomyces cerevisiae;Saccharomyces …, UniProt P25453;P32489;P89114 1-334;1-222;1-91, |).
T4 sequence 1: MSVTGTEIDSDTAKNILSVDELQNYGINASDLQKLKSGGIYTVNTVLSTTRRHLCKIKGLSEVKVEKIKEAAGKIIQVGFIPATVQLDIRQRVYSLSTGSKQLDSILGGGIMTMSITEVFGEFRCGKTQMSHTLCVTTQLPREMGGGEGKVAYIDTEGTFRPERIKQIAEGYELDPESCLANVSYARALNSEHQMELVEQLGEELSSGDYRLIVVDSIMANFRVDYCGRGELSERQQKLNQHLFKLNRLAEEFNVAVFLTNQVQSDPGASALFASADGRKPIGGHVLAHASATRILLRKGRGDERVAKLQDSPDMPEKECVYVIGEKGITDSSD
T4 sequence 2: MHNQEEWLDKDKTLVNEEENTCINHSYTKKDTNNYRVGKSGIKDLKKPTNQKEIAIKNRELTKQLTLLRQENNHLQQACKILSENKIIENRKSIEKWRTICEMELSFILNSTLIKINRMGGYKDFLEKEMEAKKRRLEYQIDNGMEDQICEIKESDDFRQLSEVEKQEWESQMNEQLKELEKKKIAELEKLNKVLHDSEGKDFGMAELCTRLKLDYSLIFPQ
T4 sequence 3: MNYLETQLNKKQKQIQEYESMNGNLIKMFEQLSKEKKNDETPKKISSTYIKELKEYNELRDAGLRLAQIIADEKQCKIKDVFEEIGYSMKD
Briefly: smFRET.

Data set [5] has as its target T5, Dmc1 (Saccharomyces cerevisiae, UniProt P25453 1-334).
T5 sequence: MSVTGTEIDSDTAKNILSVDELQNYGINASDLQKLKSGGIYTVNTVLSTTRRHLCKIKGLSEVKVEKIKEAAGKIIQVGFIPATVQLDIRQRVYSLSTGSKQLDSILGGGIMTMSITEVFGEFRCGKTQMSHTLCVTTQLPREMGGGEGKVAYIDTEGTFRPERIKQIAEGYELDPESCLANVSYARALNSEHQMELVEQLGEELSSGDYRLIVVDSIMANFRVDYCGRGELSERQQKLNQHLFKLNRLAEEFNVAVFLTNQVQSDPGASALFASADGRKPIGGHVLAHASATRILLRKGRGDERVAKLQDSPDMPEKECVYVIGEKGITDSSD
Briefly: smFRET.

Data set [6] deals with T3, RPA. Briefly: smFRET.
The target of data set [7] is T5, Dmc1. Briefly: smFRET. This is another data set of the same source.
In data set [8] the target is T4, Dmc1;Mei5-Sae3 complex. Briefly: nuclease protection.

Where two headings read alike, the source gives them in different places.

Sequence of RPA-GFP (Rfa2-eGFP) (P22336 whole entry, chain 1 of 3): as the sequence (P22336 whole entry, chain 1 of 3) above
Sequence of RPA-GFP (Rfa2-eGFP) (P26754 whole entry, chain 2 of 3): as the sequence (P26754 whole entry, chain 2 of 3) above
Sequence of RPA-GFP (Rfa2-eGFP) (P26755 whole entry, chain 3 of 3): as the sequence (P26755 whole entry, chain 3 of 3) above

In the case of “TGGCGACGGCAGCGAGGCTTTTTTTTTTTTTTTTTTTTTTTTTTTTTT / GCCTCGCTGCCGTCGCCA [dT12+18]”, in data set [1], the Kd stood at 1900 nM. With “TGGCGACGGCAGCGAGGCTTTTTTTTTTTTTTTTTTTTTTTTTTTTTTTTT / GCCTCGCTGCCGTCGCCA [dT12+21]”, the binding signal (% RPA displaced) in data set [2] turned out to be 50.

B1: Oligo 4 (90-mer) (ssDNA)
DNA: AAATCAATCTAAAGTATATATGAGTAAACTTGGTCTGACAGTTACCAATGCTTAATCAGTGAGGCACCTATCTCAGCGATCTGTCTATTT
B1: the binding result with RPA [3] and in the data set with RPA-GFP (Rfa2-eGFP) was “binds” in each case.

B2: dT13 (mixed)
DNA 1: TGGCGACGGCAGCGAGGCTTTTTTTTTTTTT
DNA 2: GCCTCGCTGCCGTCGCCA
With B2, in the data set with Dmc1;Mei5-Sae3 complex [4], the binding result was “binds”.

B3: dT9 (mixed)
DNA 1: TGGCGAGCAGCGAGGCTTTTTTTTT
DNA 2: GCCTCGCTGCCGTCGCCA
B3 gave a dissociation constant (Kd) with Dmc1 [5] of 1400 ± 39 nM. For the same molecule, the binding result with RPA [6] is listed as “binds”.

B4: dT7 (mixed)
DNA 1: TGGCGACGCAGCGAGGCTTTTTTT
DNA 2: GCCTCGCTGCCGTCGCCA
For B4, in the data set with Dmc1 [7], binding was put at a Kd of 1720 ± 77 nM.

B5: Oligo 1 (80-mer) (ssDNA)
DNA: TTATGTTCATTTTTTATATCCTTTACTTTATTTTCTCTGTTTATTCATTTACTTATTTTGTATTATCCTTATCTTATTTA
As for B5, the binding result in the data set with Dmc1;Mei5-Sae3 complex [8] is given as “binds”.

One may read the Kd as the free concentration of one partner at which half of the binding sites on the other are occupied at equilibrium, for simple one-to-one binding.

The values are drawn from PMC11514449.
